The assay deals with Nematocida displodere mechanosensitive ion channel of small conductance 2, MscS2Δ2–29 (His14-SUMO tag cleaved) (Nematocida displodere). Description: cryo-EM structure; single-particle, 0.33 mg/mL in DDM, 200 kV Glacios; consensus refinement without symmetry 8.3 Å, focused refinement of two channels 7.7 Å.

Broadly, the stoichiometry N is a count of units in the complex or per binding partner. Take “Nematocida displodere mechanosensitive ion channel of small conductance 2, MscS2Δ2–29 (His14-SUMO tag cleaved) (domain or fragment)”: the heptameric channels in the superstructure is 6 and the stoichiometry N came to 7.

Values taken from PMC11262690.
